Laboratory results: patent US20240336686A1 (ELPISCIENCE SUZHOU BIOPHARMA, published 2024)

How the values were obtained:
human PDL1 on cells [1] = target: T1, human PDL1 on cells (human, UniProt Q9NZQ7 19-290); experiment: cell-based or functional assay
[2] = target: human PDL1 protein (Octet assay) (human, UniProt Q9NZQ7 19-238); experiment: Octet; antibody on sensor, PDL1 protein in solution
Protocol: The Anti-PDL1/SIRPα bispecific protein were characterized for binding affinity against human PDL1 using Octet assay (ForeBio) according to manufacturer's manual, separately. Briefly, the antibodies were coupled on sensors and then the sensors were dipped into PDL1 protein gradients (start at 200 nM, with 2-fold dilution and totally 8 doses). Their binding responses were measured in real-time and results were fit globally.

human PDL1 on cells [3] = target: T1, human PDL1 on cells; experiment: FACS, Raji cells overexpressing human PDL1, anti-human Fc-PE, MFI
Protocol: Approximately 100,000 Raji cells overexpressing human PDL1 were washed with wash buffer and incubated with 100 ul serial dilution of PDL1/SIRPα bispecific protein for 30 minutes on ice. Cells were then washed twice with wash buffer and incubated with 100 ul of anti-human Fc-PE for 30 minutes on ice. Cells were then washed twice with wash buffer and analyzed on a FACS Canto II analyzer (BD Biosciences). […] The bispecific antibodies ES019-025, ES019-026 bound Raji/hPDL1 similar to anti-PDL1 monoclonal antibody C71 whereas ES019-020, ES019-024 bound Raji/hPDL1 to a lesser extent relative to anti-PDL1, C71.

[4] = target: T2, human SIRPα v1 ECD recombinant protein (human, UniProt P78324 31-373); experiment: competitive ELISA, plate-coated human SIRPα v1 ECD; blocked ligand: mFc tagged human CD47 ECD
T2 construct: extracellular domain; Coated on the ELISA plate
Protocol: Competitive ELISA assay was used to determine whether the purified chimeric antibodies can block CD47 and SIRPα interaction. Briefly, antibody and mFc tagged human CD47 ECD recombinant protein were co-incubated with ELISA microplate coated human SIRPα v1 ECD recombinant protein. After washing, HRP labeled anti-mouse Fc 2nd antibody (Sigma) was added and incubated at 37° C. for 1 hour. Then, 100 μl/well of TMB solution (Biotechnology) was added. After incubation for 15 minutes at room temperature, the reaction was stopped by the addition of 50 μl of 1N HCl. OD 450 nm was read. Blocking ratio was determined by blockade of human SIRPα ECD recombinant protein binding to ELISA microplate coated human CD47 ECD recombinant protein.

[5] = target: Full length human SIRPα v1 with beta-gal fragment (ED) at its C-terminal, in K562 cells (human, UniProt P78324 31-504); experiment: cell-based or functional assay
[6] = target: T3, human SIRPα v1 on CHOK1 cells (human, UniProt P78324 31-504); experiment: FACS, CHOK1 cells stably expressing human SIRPα v1
T3 construct: whole, on cells; also called CHOK1-hSIRPα v1; cell surface human SIRPα v1
Source text: (§1) Binding activity of the purified chimeric antibodies against human SIRPα variants was detected by FACS assay using CHOK1 cells or 293F cells stably expressing human SIRPα v1 and CHOK1 cells stably expressing human SIRPα v2. […] EC₅₀ and top signal calculated using GraphPad Prism9.0.

[7] = target: T4, human SIRPα v2 on CHOK1 cells (human, UniProt P78324 31-504); experiment: FACS, CHOK1 cells stably expressing human SIRPα v2
T4 construct: whole, on cells; also called CHOK1-hSIRPα v2; cell surface human SIRPα v2
Source text: as §1

[8] = target: T5, mFc tagged human SIRPα v1 ECD recombinant protein (human, UniProt P78324 31-373); experiment: competitive ELISA; row antibody in excess in solution, coated mAb 025c
T5 construct: extracellular domain; not shown: mouse Fc tag
Protocol: (§2) Competitive ELISA assay was used for epitope binning of purified chimeric antibodies. Briefly excessive competitor antibody and mFc tagged human SIRPα v1 ECD recombinant protein were co-incubated with ELISA microplate coated antibody. After washing, HRP labeled anti-mouse Fc 2nd antibody (Sigma) was added and incubated at 37° C. for 1 hour. Then, 100 μl/well of TMB solution (Biotechnology) was added. After incubation for 15 minutes at room temperature, the reaction was stopped by the addition of 50 μl of 1N HCl. OD 450 nm was read. Competition ratio was calculated. The antibodies that can compete each other for binding to SIRPα may have related binding epitopes.

[9] = target: T5, mFc tagged human SIRPα v1 ECD …; experiment: competitive ELISA; row antibody in excess in solution, coated mAb 042c
Protocol: as §2

[10] = target: T5, mFc tagged human SIRPα v1 ECD …; experiment: competitive ELISA; row antibody in excess in solution, coated mAb hu1H9G4
Protocol: as §2

[11] = target: T2, human SIRPα v1 ECD recombinant protein; experiment: competitive ELISA, plate-coated human SIRPα v1 ECD; blocked ligand: mFc tagged human CD47 ECD; remark: listed apart in the source
Protocol: (§3) Competitive ELISA assay was used to determine whether the purified chimeric antibodies can block CD47 and SIRPα interaction. Briefly, antibody and mFc tagged human CD47 ECD recombinant protein were co-incubated with ELISA microplate coated human SIRPα v1 ECD or human SIRPα v2 ECD recombinant protein. The concentration of soluble ECD of CD47 is 25 nM, and the concentration of soluble ECD of SIRPα is 20 nM. After washing, HRP labeled anti-mouse Fc 2nd antibody (Sigma) was added and incubated at 37° C. for 1 hour. Then, 100 μl/well of TMB solution (Biotechnology) was added. After incubation for 15 minutes at room temperature, the reaction was stopped by the addition of 50 μl of 1N HCl. OD 450 nm was read. Blocking ratio was determined by blockade of human SIRPα ECD recombinant protein binding to ELISA microplate coated human CD47 ECD recombinant protein. All antibodies as tested can block interaction between human CD47 and different human SIRPα variants.

[12] = target: T6, human SIRPα v2 ECD recombinant protein (human); experiment: competitive ELISA, plate-coated human SIRPα v2 ECD; blocked ligand: mFc tagged human CD47 ECD
T6 construct: extracellular domain; Coated on the ELISA plate
Protocol: as §3

human PDL1 protein (Octet assay), sequence (Q9NZQ7 19-238 limits assumed): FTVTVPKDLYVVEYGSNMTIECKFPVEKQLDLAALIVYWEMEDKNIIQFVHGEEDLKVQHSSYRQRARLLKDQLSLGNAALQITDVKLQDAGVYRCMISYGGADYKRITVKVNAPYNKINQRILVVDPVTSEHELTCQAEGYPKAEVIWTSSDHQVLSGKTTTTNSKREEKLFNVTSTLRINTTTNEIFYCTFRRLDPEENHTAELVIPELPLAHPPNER
T2 sequence (P78324 31-373): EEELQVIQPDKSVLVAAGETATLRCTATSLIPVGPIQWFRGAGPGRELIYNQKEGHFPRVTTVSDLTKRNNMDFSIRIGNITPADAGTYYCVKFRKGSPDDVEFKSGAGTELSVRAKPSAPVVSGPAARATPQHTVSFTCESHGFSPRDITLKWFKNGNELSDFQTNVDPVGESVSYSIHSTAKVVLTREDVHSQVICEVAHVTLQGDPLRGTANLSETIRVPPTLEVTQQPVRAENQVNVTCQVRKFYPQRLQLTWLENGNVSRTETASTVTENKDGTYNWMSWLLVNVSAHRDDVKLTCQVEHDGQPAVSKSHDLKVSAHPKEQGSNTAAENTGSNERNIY
T5 sequence (P78324 31-373): as above
T1 sequence (Q9NZQ7 19-290): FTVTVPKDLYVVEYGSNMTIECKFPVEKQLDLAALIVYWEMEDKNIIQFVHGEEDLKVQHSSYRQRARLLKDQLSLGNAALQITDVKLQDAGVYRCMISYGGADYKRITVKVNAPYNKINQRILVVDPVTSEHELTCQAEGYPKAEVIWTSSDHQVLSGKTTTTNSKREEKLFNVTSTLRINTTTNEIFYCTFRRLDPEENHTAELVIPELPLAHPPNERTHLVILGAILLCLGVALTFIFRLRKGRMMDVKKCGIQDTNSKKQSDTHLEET
T4 sequence (P78324 other isoform, or with tags, fused parts or gaps limits assumed): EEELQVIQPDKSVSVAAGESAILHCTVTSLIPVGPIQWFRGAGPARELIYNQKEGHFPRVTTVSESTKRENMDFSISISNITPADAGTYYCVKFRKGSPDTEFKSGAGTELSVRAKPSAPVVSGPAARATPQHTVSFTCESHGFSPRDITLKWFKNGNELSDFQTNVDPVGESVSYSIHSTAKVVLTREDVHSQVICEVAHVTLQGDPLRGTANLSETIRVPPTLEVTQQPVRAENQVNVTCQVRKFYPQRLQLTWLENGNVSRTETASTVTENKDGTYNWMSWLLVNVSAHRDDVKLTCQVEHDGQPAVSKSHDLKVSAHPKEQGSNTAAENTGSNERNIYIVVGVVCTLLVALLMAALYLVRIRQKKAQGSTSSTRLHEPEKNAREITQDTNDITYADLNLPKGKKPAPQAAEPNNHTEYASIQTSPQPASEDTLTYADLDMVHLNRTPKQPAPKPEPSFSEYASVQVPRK
Full length human SIRPα v1 with beta-gal fragment (ED) at its C-terminal, in K562 cells, sequence (P78324 31-504): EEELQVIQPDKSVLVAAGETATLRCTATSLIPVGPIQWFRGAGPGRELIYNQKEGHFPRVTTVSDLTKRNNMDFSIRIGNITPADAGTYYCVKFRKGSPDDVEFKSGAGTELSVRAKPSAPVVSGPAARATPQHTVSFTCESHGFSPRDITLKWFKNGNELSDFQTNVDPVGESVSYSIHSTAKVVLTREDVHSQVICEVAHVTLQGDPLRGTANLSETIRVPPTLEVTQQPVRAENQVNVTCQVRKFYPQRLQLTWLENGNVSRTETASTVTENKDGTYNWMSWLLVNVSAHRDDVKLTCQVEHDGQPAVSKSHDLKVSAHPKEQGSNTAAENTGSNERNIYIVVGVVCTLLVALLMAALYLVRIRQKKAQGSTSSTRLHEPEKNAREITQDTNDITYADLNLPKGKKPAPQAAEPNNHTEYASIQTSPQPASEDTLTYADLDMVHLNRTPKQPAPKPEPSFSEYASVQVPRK
T3 sequence (P78324 31-504): as above

| EC50 (read off the curve) (human PDL1 on cells [1]) [nM] | Kd [2] [nM] | koff [2] [s⁻¹] | kon [2] [M⁻¹ s⁻¹] | EC50 (read off the curve) (human PDL1 on cells [3]) [nM] | Binder | other results |
| --- | --- | --- | --- | --- | --- | --- |
| ~2 | 5.31 | 0.00501 | 942000 | ~0.2 | Anti-PDL1 antibody C71 (antibody, V domains shown, Heavy chain antibody (single domain variable region); also called Anti-PDL1, C71) VH: EVQVVESGGGLVQSGGSLKLSCAGSGFTESAGFMVWHRQVPGKERELVALIATPSGSTNYADSVKGRFTISRDNGKNTVYLQMNSLKPEDTAVYYCNIRGYWGQGTLVTVSS |  |
| ~3 | 5.54 | 0.00509 | 918000 | ~0.6 | Anti-PDL1/SIRPα bispecific antibody ES019-020 (bispecific antibody, not shown: small tags and cut ends; a dimerising Fc or GST) light (part 1 of 2): QIVLTQSPAIMSASPGEKVTLTCSASSSVSSSYLYWYQQKPGSSPKLWIYSTSNLASGVPARFSGSGSGTSYSLTISSMEAEDAASYFCHQWSSYPYTFGGGTKLEIK light (part 2 of 2): EVQVVESGGGLVQSGGSLKLSCAGSGFTESAGFMVWHRQVPGKERELVALIATPSGSTNYADSVKGRFTISRDNGKNTVYLQMNSLKPEDTAVYYCNIRGYWGQGTLVTVSS heavy: EVQLQQSGAELVKPGASVKLSCTASGFNIKDYYMHWVKQRTEQGLEWIGRIDPEDGETKYAPKFQGKATITADTSSNTAYLQLSSLTSEDTAVYYCDRGLAYWGQGTLVTVSA |  |
| ~2 | 6.56 | 0.00603 | 920000 | ~0.6 | Anti-PDL1/SIRPα bispecific antibody ES019-024 (bispecific antibody, not shown: a dimerising Fc or GST) light: QIVLTQSPAIMSASPGEKVTLTCSASSSVSSSYLYWYQQKPGSSPKLWIYSTSNLASGVPARFSGSGSGTSYSLTISSMEAEDAASYFCHQWSSYPYTFGGGTKLEIK heavy (part 1 of 2): EVQLQQSGAELVKPGASVKLSCTASGFNIKDYYMHWVKQRTEQGLEWIGRIDPEDGETKYAPKFQGKATITADTSSNTAYLQLSSLTSEDTAVYYCDRGLAYWGQGTLVTVSA heavy (part 2 of 2): EVQVVESGGGLVQSGGSLKLSCAGSGFTESAGFMVWHRQVPGKERELVALIATPSGSTNYADSVKGRFTISRDNGKNTVYLQMNSLKPEDTAVYYCNIRGYWGQGTLVTVSS |  |
|  |  |  |  |  | Anti-SIRPα antibody C35 (antibody, V domains shown, Tested as purified chimeric antibody; also called 035) VH: QIQLVQSGPELRKPGETVKISCKASGYSFTNYAMNWVKQAPGKVLKWMGFINTYTGEPTYADDFKGRFAFSLETSASTAYLQINNLKNEDTATYFCTRTRGYYDFDGGAFDYWGQGTSLTVSS VL: DIVMTQSQKFMSTSIGDRVSVTCKASQNVGTHLAWYQQKPGQSPKALIFSASYRYIGVPDRFTGSGSGTDFTLTITNVQSEDLAEYFCQQYNTYPLTFGAGTKLELK | IC50 (read off the curve) [4]: ~2 nM |
|  |  |  |  |  | Anti-SIRPα antibody C73 (antibody, human IgG4, V domains shown, Mouse variable regions; also called 073c; 073C) VH: QIQLVQSGPELKKPGETVKISCKASGYTFTTYGMSWVKQAPGKGLKWMVWINTYSGVPTYADDFKGRFAFSLETSASTSYLQINNLKNEDTATYFCARDPHYYGSSPAWFVYWGQGTLVTVSA VL: DIVMTQSQKFMSTTIGDRVSITCEASQIVGIAVAWYQQKPGQSPKLLIYSASNRYTGVPDRFTGSGSGTDFTLTISNMQSEDLANYFCQQYSAYPFTFGSGTKLEVK | IC50 (SHP-1 recruitment blocking) [5]: 5.66 nM; TOP blocking (SHP-1 recruitment) [5]: 51.2%; EC50 [6]: 1.5 nM; TOP MFI [6]: 67800 MFI; EC50 [7]: 2.12 nM; TOP MFI [7]: 47300 MFI; % Competition [8]: 9.1%; % Competition [9]: 93.6%; % Competition [10]: 37.7%; IC50 [11]: 2.74 nM; TOP blocking [11]: 95.1%; IC50 [12]: 4.92 nM; TOP blocking [12]: 82.8% |
